Results on 4 molecules are retold here after patent US20050233963A1 (priority 2000, published 2005).

The target in one assay is T1, hsc70 (Bos taurus, UniProt P19120).
T1 construct: purchased Stressgen
Description: UBP far-western analysis on hsc70. The format is binding. To be noted: GST fusions as probe. An excerpt:
FIG. 13A: Thirty μg of HeLa cell lysate was separated by SDS-PAGE in three identical lanes, blotted to nitrocellulose and probed with either, no probe (none), GST alone, or GST-UBP. The far-western blot was then developed with anti-GST antibody to reveal bands which interact with UBP. The arrow to the right indicates a 70 kD band detected by the GST-UBP fusion. The numbers to the left of each blot represent molecular weights in kilodaltons. […] FIG. 13C, Samples from the GST-UBP pull down assay were analyzed by western blot for the presence hsc70. At the bottom of the gel, the contents of each reaction are indicated by the plus symbols. The NaCl concentration of the washing buffer (100, 200, 300, and 500 mM) is indicated at the top of each lane. The arrow to the right of the blot indicates the position of the hsc70 band.
The term “hsc70” is used when referring to both hsp70 and its nearly identical constitutive counterpart, hsc70. […] The numbers to the left of the blots indicate the molecular weights in kilodaltons. The diagram below the blots indicates regions of UBP contained in each fusion construct. The column to the right summarizes the results, where a plus symbol indicates binding and a minus symbol indicates no binding.
Western blots were performed using standard techniques. Briefly, 30 μg HeLa cytoplasmic extract or 20 ng of hsc70, hsp70, or hsp90 were denatured in 1×SDS sample buffer. The samples were loaded on a 10% polyacrylamide gel. Separated protein was transferred to nitrocellulose membranes. The membranes were blocked in 5% dry milk protein in TBS (20 mM Tris [pH 7.4], 100 mM NaCl) for 45 min. The gels with proteins separated on them were transferred to nitrocellulose and blocked against 5% dry milk protein in TBS for 45 min. Primary antibody, either anti-hsp70 or hsp90 monoclonal antibodies, or anti-UBP rabbit polyclonal antibody was incubated with the blots at appropriate concentrations (1:1000 dilutions for each) in 5% milk protein in TBS for 2 hours at 4° C. with gentle rocking. The membranes were washed with TBS for 10 minutes. […]

The next assay concerns HIV-1. In words: HIV-1 particle release, p24 antigen capture ELISA in transfected HeLa cells. The format is cell-based, human immunodeficiency virus type 1. As to conditions: co-expression in HeLa cells. How it is done: FIG. 20B: Alternatively, HeLa cells were co-transfected with 1 μg of Vpu^+ or Vpu^− proviral genomes and 10 μg pHIV-TARluc (Luc) or pHIV-FTPR. Thirty-six hours after transfection the amount of p24 Gag in the media and cell pellets was quantified using an antigen capture ELISA. The relative particle release is given by the ratio of extracellular to intracellular p24. The data were normalized to the control (Luc). The error bars represent the error of the mean for three independent experiments.
Triplicate plates of 5×10^5 HeLa cells were transfected with 1 μg of Vpu^+ (MSMBA) or Vpu^− (DF101) proviral genomes and 10 μg of pHIV-UBP, pHIV-UBP-N, pHIV-FTPR or pHIV-TARluc. Thirty-six hrs after transfection, media were harvested and centrifuged at low-speed to remove cellular debris. The cells were washed with 1×PBS, resuspended in 1 ml of PBS, then pelleted at 5000×g in microfuge tubes. The cell pellets and media were treated with lysis buffer and applied to an HIV-1 p24 antigen assay kit following the instructions of the manufacturer (Coulter, Westbrook, Maine). Samples were processed along with positive controls to give quantitative levels of p24 Gag. Data were plotted as a function of the relative p24 units.

T1 sequence (P19120 2-650 limits assumed): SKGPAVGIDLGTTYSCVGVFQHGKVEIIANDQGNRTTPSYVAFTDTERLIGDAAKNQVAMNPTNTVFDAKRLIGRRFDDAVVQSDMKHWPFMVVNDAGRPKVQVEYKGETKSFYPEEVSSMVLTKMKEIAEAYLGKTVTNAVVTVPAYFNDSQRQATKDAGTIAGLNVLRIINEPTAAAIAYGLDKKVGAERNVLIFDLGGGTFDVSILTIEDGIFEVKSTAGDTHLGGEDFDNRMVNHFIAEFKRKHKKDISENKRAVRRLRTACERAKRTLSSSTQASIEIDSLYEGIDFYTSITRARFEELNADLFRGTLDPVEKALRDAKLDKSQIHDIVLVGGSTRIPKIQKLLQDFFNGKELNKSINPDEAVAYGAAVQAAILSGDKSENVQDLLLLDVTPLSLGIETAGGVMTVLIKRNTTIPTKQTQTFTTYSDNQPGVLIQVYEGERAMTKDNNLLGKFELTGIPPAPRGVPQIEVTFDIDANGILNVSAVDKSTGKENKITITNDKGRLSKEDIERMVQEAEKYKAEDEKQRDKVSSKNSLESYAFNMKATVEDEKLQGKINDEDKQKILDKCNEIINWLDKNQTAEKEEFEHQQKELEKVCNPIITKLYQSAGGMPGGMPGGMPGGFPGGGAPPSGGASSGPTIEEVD

B1: TPR 2-4 (protein)
chain: KTEGNEQMKVENFEAAVHFYGKAIELNPANAVYFCNRAAAYSKLGNYAGAVQDCERAICIDPAYSKAYGRMGLALSSLNKHVEAVAYYKKALELDPDNETY
modifications: left off: a dimerising Fc or GST
Take B1: the “interaction with hsc70” value with hsc70 is “capable of stable interaction”.

B2: FTPR: UBP fragment containing TPR 2-4 with flanking charged residues (a.a. 81-209) (protein)
chain: TPPSEEDSAEAERLKTEGNEQMKVENFEAAVHFYGKAIELNPANAVYFCNRAAAYSKLGNYAGAVQDCERAICIDPAYSKAYGRMGLALSSLNKHVEAVAYYKKALELDPDNETYKSNLKIAELKLREA
Regarding B2, the “efficiency of virus particle exit (extracellular to intracellular p24 Gag)” value is “slight increase” with HIV-1 (Vpu present) and “did not significantly increase” in the assay on HIV-1 (absence of Vpu).

B3: N 1/2: N-terminal portion of UBP (a.a. 1-145) (protein)
chain: MDNKKRLAYAIIQFLHDQLRHGGLSSDAQESLEVAIQCLETAFGVTVEDSDLALPQTLPEIFEAAATGKEMPQDLRSPARTPPSEEDSAEAERLKTEGNEQMKVENFEAAVHFYGKAIELNPANAVYFCNRAAAYSKLGNYAGAV
modifications: left off: a dimerising Fc or GST
As to B3, the “efficiency of virus particle exit (extracellular to intracellular p24 Gag)” value in the assay with HIV-1 (Vpu present) is listed as “slight increase”; in the assay on HIV-1 (absence of Vpu) it was “did not significantly increase”. Moreover, the “interaction with hsc70” value with hsc70 is given as “did not detectably interact”.

B4: C 1/2: C-terminal half of UBP (a.a. 145-313) (protein)
chain: VQDCERAICIDPAYSKAYGRMGLALSSLNKHVEAVAYYKKALELDPDNETYKSNLKIAELKLREAPSPTGGVGSFDIAGLLNNPGFMSMASNLMNNPQIQQLMSGMISGGNNPLGTPGTSPSQNDLASLIQAGQQFAQQMQQQNPELIEQLRSQIRSRTPSASNDDQQE
modifications: left off: a dimerising Fc or GST
As to B4, the “interaction with hsc70” value with hsc70 was “did not detectably interact”.
